Tests used:
Assay in all cases: holdup assay
Design in all cases: key: below the threshold = too weak to quantify, mostly under pKd 3.1 to 4
[1] = molecular target: T1, PDZD2_2, O15018
T1 sequence (O15018 329-429, limits assumed, looked up): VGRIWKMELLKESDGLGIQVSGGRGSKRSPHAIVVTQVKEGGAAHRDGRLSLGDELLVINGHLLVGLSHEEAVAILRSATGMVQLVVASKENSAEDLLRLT

[2] = molecular target: T2, GRIP1_7, Q9Y3R0
T2 sequence (Q9Y3R0 999-1096, limits assumed, looked up): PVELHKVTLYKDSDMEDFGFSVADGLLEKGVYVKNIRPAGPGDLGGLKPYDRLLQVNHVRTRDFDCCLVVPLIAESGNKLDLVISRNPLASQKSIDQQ

[3] = molecular target: T3, GRIP1_4, Q9Y3R0
T3 sequence (Q9Y3R0 467-571, limits assumed, looked up): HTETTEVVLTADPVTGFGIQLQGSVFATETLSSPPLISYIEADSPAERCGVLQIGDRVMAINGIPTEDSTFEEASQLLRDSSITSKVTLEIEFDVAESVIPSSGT

[4] = molecular target: T4, HTRA3, P83110
T4 sequence (P83110 354-453, limits assumed, looked up): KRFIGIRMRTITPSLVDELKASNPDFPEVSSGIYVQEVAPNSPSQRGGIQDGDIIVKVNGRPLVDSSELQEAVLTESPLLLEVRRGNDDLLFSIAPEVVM

[5] = molecular target: NHERF4_1, Q86UT5-2
Chain of NHERF4_1, Q86UT5-2 (Q86UT5 other isoform, or with tags, fused parts or gaps): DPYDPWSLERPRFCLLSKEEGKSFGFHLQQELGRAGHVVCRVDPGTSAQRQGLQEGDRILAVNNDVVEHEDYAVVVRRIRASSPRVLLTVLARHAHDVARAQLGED

[6] = molecular target: T5, APBA2_1, Q99767
T5 sequence (Q99767 563-664, limits assumed, looked up): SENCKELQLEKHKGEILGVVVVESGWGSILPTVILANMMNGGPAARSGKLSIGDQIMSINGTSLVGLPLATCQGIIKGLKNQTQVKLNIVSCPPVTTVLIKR

[7] = molecular target: Inadl_1, Q8NI35
Chain of Inadl_1, Q8NI35 (Q8NI35 113-229): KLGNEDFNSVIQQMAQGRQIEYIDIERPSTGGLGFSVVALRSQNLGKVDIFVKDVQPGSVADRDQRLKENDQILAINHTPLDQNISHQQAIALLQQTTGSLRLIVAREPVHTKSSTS

[8] = molecular target: GORASP1, Q9BQQ3
Chain of GORASP1, Q9BQQ3 (Q9BQQ3 1-208): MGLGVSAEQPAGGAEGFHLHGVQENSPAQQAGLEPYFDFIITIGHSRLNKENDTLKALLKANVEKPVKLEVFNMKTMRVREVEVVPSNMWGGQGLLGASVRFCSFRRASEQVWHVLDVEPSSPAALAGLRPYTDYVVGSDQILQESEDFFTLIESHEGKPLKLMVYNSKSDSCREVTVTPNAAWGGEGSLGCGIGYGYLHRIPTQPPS

[9] = molecular target: T6, PCLO, Q9Y6V0
T6 sequence (Q9Y6V0 4491-4600, limits assumed, looked up): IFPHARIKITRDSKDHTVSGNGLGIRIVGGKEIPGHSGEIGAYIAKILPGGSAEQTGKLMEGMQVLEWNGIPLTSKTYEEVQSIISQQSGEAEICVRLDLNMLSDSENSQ

[10] = molecular target: T7, DLG3_2, Q92796
T7 sequence (Q92796 221-321, limits assumed, looked up): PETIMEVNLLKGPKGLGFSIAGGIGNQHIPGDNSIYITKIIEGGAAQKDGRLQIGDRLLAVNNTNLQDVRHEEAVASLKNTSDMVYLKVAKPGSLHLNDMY

[11] = molecular target: SCRIB_3, Q14160
Chain of SCRIB_3, Q14160 (Q14160 999-1103): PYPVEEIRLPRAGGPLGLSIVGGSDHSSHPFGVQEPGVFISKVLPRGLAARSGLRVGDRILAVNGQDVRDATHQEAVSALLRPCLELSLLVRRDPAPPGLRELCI

[12] = molecular target: T8, SNTB1, Q13884
T8 sequence (Q13884 107-205, limits assumed, looked up): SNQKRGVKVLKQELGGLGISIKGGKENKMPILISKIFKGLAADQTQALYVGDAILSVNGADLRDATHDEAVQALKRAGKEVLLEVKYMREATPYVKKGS

[13] = molecular target: Inadl_9, Q8NI35
Chain of Inadl_9, Q8NI35 (Q8NI35 1530-1615): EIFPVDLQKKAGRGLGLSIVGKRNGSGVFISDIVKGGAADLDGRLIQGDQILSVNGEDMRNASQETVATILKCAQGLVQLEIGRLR

[14] = molecular target: DLG1_2, Q12959
[15] = molecular target: T9, DFNB31_1, Q9P202
T9 sequence (Q9P202 135-233, limits assumed, looked up): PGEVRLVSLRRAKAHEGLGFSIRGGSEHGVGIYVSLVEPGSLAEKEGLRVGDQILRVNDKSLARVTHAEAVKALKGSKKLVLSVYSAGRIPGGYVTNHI

[16] = molecular target: Inadl_10, Q8NI35
Chain of Inadl_10, Q8NI35 (Q8NI35 1673-1763): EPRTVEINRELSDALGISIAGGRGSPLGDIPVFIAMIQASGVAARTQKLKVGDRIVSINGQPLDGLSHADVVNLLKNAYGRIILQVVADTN

[17] = molecular target: DLG1_1, Q12959
[18] = molecular target: PDZRN4_1, Q6ZMN7
Chain of PDZRN4_1, Q6ZMN7 (Q6ZMN7 213-318): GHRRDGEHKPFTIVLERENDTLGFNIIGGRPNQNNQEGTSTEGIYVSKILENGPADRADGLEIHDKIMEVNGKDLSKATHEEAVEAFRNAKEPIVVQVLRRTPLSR

[19] = molecular target: LNX1_3, Q8TBB1
Chain of LNX1_3, Q8TBB1 (Q8TBB1 500-596): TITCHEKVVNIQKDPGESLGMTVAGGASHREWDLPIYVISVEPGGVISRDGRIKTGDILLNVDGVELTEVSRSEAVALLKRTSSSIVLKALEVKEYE

[20] = molecular target: Inadl_5, Q8NI35
Chain of Inadl_5, Q8NI35 (Q8NI35 673-780): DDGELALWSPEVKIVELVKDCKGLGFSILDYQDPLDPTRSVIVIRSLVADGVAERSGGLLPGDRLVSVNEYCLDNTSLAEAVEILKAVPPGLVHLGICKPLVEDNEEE

[21] = molecular target: T10, GRIP1_3, Q9Y3R0
T10 sequence (Q9Y3R0 247-346, limits assumed, looked up): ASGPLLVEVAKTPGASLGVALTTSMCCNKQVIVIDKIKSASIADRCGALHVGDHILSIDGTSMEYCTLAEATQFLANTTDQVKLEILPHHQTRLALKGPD

[22] = molecular target: DLG2_3, Q15700
[23] = molecular target: T11, MPP7, Q5T2T1
T11 sequence (Q5T2T1 134-230, limits assumed, looked up): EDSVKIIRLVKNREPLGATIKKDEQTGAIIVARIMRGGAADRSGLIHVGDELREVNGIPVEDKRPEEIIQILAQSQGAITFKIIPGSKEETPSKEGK

[24] = molecular target: PICK1, Q9NRD5
Chain of PICK1, Q9NRD5 (Q9NRD5 17-115): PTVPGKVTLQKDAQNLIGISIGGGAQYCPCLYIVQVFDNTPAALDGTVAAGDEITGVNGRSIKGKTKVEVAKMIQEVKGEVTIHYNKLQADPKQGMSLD

[25] = molecular target: T12, LIN7B, Q9HAP6
T12 sequence (Q9HAP6 88-185, limits assumed, looked up): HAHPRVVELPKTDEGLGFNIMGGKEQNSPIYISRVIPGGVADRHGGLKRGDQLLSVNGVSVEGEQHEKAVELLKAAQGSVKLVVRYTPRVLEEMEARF

[26] = molecular target: AHNAK1, Q09666
Chain of AHNAK1, Q09666 (Q09666 4-100): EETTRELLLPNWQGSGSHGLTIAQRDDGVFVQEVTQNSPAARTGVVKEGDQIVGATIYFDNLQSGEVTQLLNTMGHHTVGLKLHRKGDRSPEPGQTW

[27] = plain residues with an end cap or a label only (N-terminal biotin on a linker: ttds)
[28] = plain residues with an end cap or a label only (N-terminal biotin on a linker: ahx)
[29] = plain residues with an end cap or a label only (N-terminal biotin on a linker: ado-ado)

B1: HPV51-E6, P26554 (peptide)
chain: RTRQRNETQV
[1]; [27]
  pKd: 3.58
[2]; [27]
  pKd: below the threshold
[3]; [27]
  pKd: below the threshold
[4]; [27]
  pKd: below the threshold
[5]; [27]
  pKd: below the threshold
[6]; [27]
  pKd: below the threshold
[7]; [27]
  pKd: below the threshold
[8]; [27]
  pKd: below the threshold
[9]; [27]
  pKd: below the threshold
[10]; [27]
  pKd: 5.1
[11]; [27]
  pKd: 4.17
[12]; [27]
  pKd: 4.09
[13]; [27]
  pKd: below the threshold
[14]; [27]
  pKd: 5.13
[15]; [27]
  pKd: 3.47
[16]; [27]
  pKd: below the threshold
[17]; [27]
  pKd: 4.78
[18]; [27]
  pKd: 4.16
[19]; [27]
  pKd: below the threshold
[20]; [27]
  pKd: 3.4
[21]; [27]
  pKd: below the threshold
[22]; [27]
  pKd: 4.75
[23]; [27]
  pKd: below the threshold
[24]; [27]
  pKd: below the threshold
[25]; [27]
  pKd: below the threshold
[26]; [27]
  pKd: below the threshold

B2: TMEM215, Q68D42 (peptide)
chain: QGRWDHETIV
[1]; [28]
  pKd: 4.69
[2]; [28]
  pKd: 3.51
[3]; [28]
  pKd: below the threshold
[4]; [28]
  pKd: below the threshold
[5]; [28]
  pKd: below the threshold
[6]; [28]
  pKd: below the threshold
[7]; [28]
  pKd: below the threshold
[8]; [28]
  pKd: 4.15
[9]; [28]
  pKd: below the threshold
[10]; [28]
  pKd: 4.8
[11]; [28]
  pKd: 4.06
[12]; [28]
  pKd: 4.95
[13]; [28]
  pKd: 3.92
[14]; [28]
  pKd: 4.81
[15]; [28]
  pKd: 3.86
[16]; [28]
  pKd: 3.64
[17]; [28]
  pKd: 4.84
[18]; [28]
  pKd: 3.67
[19]; [28]
  pKd: below the threshold
[20]; [28]
  pKd: 3.63
[21]; [28]
  pKd: below the threshold
[22]; [28]
  pKd: 4.53
[23]; [28]
  pKd: 3.63
[24]; [28]
  pKd: 4.06
[25]; [28]
  pKd: below the threshold
[26]; [28]
  pKd: 3.64

B3: ABRAXAS2, Q15018 (peptide)
chain: DPRNTQTSQI
[1]; [27]
  pKd: 4.44
[2]; [27]
  pKd: below the threshold
[3]; [27]
  pKd: below the threshold
[4]; [27]
  pKd: below the threshold
[5]; [27]
  pKd: below the threshold
[6]; [27]
  pKd: below the threshold
[7]; [27]
  pKd: 3.72
[8]; [27]
  pKd: 3.56
[9]; [27]
  pKd: 3.66
[10]; [27]
  pKd: 3.81
[11]; [27]
  pKd: 4.01
[12]; [27]
  pKd: 3.96
[13]; [27]
  pKd: below the threshold
[14]; [27]
  pKd: 3.84
[15]; [27]
  pKd: 4.06
[16]; [27]
  pKd: 3.52
[17]; [27]
  pKd: 3.49
[18]; [27]
  pKd: 3.56
[19]; [27]
  pKd: below the threshold
[20]; [27]
  pKd: below the threshold
[21]; [27]
  pKd: below the threshold
[22]; [27]
  pKd: 3.53
[23]; [27]
  pKd: below the threshold
[24]; [27]
  pKd: below the threshold
[25]; [27]
  pKd: below the threshold
[26]; [27]
  pKd: 3.53

B4: CES2, O00748 (peptide)
chain: EEPEERHTEL
[1]; [29]
  pKd: 5.04
[2]; [29]
  pKd: below the threshold
[3]; [29]
  pKd: below the threshold
[4]; [29]
  pKd: below the threshold
[5]; [29]
  pKd: 4.09
[6]; [29]
  pKd: below the threshold
[7]; [29]
  pKd: below the threshold
[8]; [29]
  pKd: below the threshold
[9]; [29]
  pKd: below the threshold
[10]; [29]
  pKd: 4.38
[11]; [29]
  pKd: 4.89
[12]; [29]
  pKd: 4.92
[13]; [29]
  pKd: below the threshold
[14]; [29]
  pKd: 4.13
[15]; [29]
  pKd: 3.6
[16]; [29]
  pKd: below the threshold
[17]; [29]
  pKd: below the threshold
[18]; [29]
  pKd: 4.13
[19]; [29]
  pKd: below the threshold
[20]; [29]
  pKd: below the threshold
[21]; [29]
  pKd: below the threshold
[22]; [29]
  pKd: 3.78
[23]; [29]
  pKd: 3.79
[24]; [29]
  pKd: below the threshold
[25]; [29]
  pKd: 3.89
[26]; [29]
  pKd: below the threshold

Reference: PMC9482650, “Quantitative fragmentomics allow affinity mapping of interactomes” (Nature Communications, 2022)
